The results in this text go back to patent US7265263B1, “Potato transcription factors, methods of use thereof, and a method for enhancing tuber development” (Iowa State University Research Foundation, Inc., priority 2002, dated 2007).

Assay [1] has as its target T1, POTH1 in pBridge (full-length POTH1 fused with the GAL4 DNA-binding domain) (Solanum tuberosum).
T1 construct: Bait of the yeast two-hybrid screen and partner of the StBEL-05 deletion constructs; also called pBHD; pBridge:POTH1
Briefly: yeast two-hybrid deletion analysis. The text has this: The Matchmaker two-hybrid system (Clontech, Calif.) was used for the yeast two-hybrid screen. Yeast transformation and plasmid rescue into DH5-α *E. coli* cells were according to the manufacturer's instructions. Full-length POTH1 was cloned into the pBridge (Clontech, Calif.) vector and used as bait to screen the potato (*S. tuberosum* 'Desireé') stolon cDNA library in pAD-GAL4-2.1 (Stratagene, Calif.). Positive interactions were confirmed by cotransforming yeast strain AH109 with each purified pAD plasmid and pBridge: POTH1 and plating on -leucine/-tryptophan (transformation control) and -leucine/-tryptophan/-histidine/-adenine (selection) nutrient medium. Induction of the AH109 reporter gene, lacZ, was measured with a yeast β-galactosidase assay kit (Pierce Chemicals). β-galactosidase activity (FIG. 9B) was determined from a known density of yeast cells and calculated as 1000 ×OD420/time of color reaction (minutes)×volume of yeast culture (ml)×$OD600$.
The StBEL-05 deletion constructs were amplified by PCR, then cloned into the vector, pGAD, in-frame with the GAL4 activation domain. POTH1 deletion constructs were amplified by PCR, and cloned into pBridge (Clontech) in-frame with the GAL4 binding domain. Sequencing of selected cDNAs and constructs was performed at the Iowa State University DNA Facility. […]

In assay [2] the target is T2, StBEL-05 in pBridge (fusion with the GAL4 DNA-binding domain) (Solanum tuberosum).
T2 construct: Swapped two-hybrid orientation; also called prey cDNA cloned into pBridge
Briefly: yeast two-hybrid, swapped vectors.

The subject of assay [3] is StBEL-05. Description: In vitro binding assay of POTH1 deletion constructs with StBEL-05. Further details: species or system Solanum tuberosum. As to conditions: in vitro binding protocol. As to the method:
In vitro binding experiments were performed as described by Ni et al., “PIF3, a Phytochrome-Interacting Factor Necessary for Normal Photoinduced Signal Transduction, is a Novel Basic Helix-Loop-Helix Protein,” Cell 95:657-667 (1998), which is hereby incorporated by reference in its entirety. The full-length sequence for POTH1 was cloned into a pET17b/GAD fusion cassette and transcribed under the control of the T7 promoter. […] Each 50 μl TnT reaction contained 2.0 μg of template plasmid DNA and 20 μmol (20 μCi) of labeled ^35S-methionine. The POTH1:GAD/BEL complex was immunoprecipitated with anti-GAD antibodies (Santa Cruz Biotechnology, Calif.). The proteins from the pellet (one-half the fraction) and for the prey (one-fourth of the reaction volume) were resolved on a 10% SDS-PAGE gel and visualized by autoradiography. […] Control experiments identified the first 114 aa of the N-terminus (pBHD9) as a transcriptional activator. […] Co-transformation of pBHD9 with an empty pGAD cassette produced transformants capable of growth on -histidine, -tryptophan, -adenine, and -leucine medium and induction of lacZ. None of the other constructs containing this domain were capable of growing on selection media without StBEL-05.

Assay [4] has as its system StBEL-05. Briefly: Yeast two-hybrid interaction of POTH1 deletion constructs with StBEL-05. As to conditions: yeast AH109. It is filed as binding, Solanum tuberosum. Here is the method:
The StBEL-05 deletion constructs were amplified by PCR, then cloned into the vector, pGAD, in-frame with the GAL4 activation domain. POTH1 deletion constructs were amplified by PCR, and cloned into pBridge (Clontech) in-frame with the GAL4 binding domain. Sequencing of selected cDNAs and constructs was performed at the Iowa State University DNA Facility. For deletion analysis, modified constructs of POTH1 were cloned into the pBridge vector for fusion with the DNA-binding domain of GAL4 (FIG. 10A). For StBEL-05, constructs were cloned into the pGAD vector for fusion with the activating domain of GAL4 (FIG. 10B). Deletion constructs were made from both the amino and carboxy termini. These mutants were then tested for interaction in the yeast two-hybrid system by cotransforming into yeast strain AH109 with the corresponding full-length partner (StBEL-05 in pGAL4 or POTH1 in pBridge). All constructs were sequenced to verify that they were in-frame. Positive interactions were verified for lacZ induction by using a β-galactosidase assay (Pierce Chemical Company). For POTH1, seven deletion constructs were tested (FIG. 10A). For the BEL TFs, a fusion construct of StBEL-05 (653 aa of StBEL-05 sequence) and nine deletion constructs were tested (FIG. 10B).

B1: pAD5-2 (StBEL-05 deletion construct in pGAD) (other, not shown: small tags and cut ends)
chain: EEVEQRYRQYHHQMQIIVLSFEQVAGIGSAKSYTQLALHAISKQFRCLKDAIAEQVKATSKSLGEEEGLGGKIEGSRLKFVDHHLRQQRALQQIGMMQPNAWRPQRGLPERAVSVLRAWLFEHFLHPYPKDSDKIMLAKQTGLTRSQVSNWFINARVRLWKPMVEEMYLEEVKNQEQNSTNTSGDNKNKETNISAPNEEKHPIITSSLLQDGITTTQAEISTSTISTSPTAGASLHHAHNFSFLGSFNMDNTTTTVDHIENNAKKQRNDMHKFSPSSILSSVDMEAKARESSNKGFTNPLMAAYAMGDFGRFDPHDQQMTANFHGNNGVSLTLGLPPSENLAMPVSQQNYLSNDLGSRSEMGSHYNRMGYENIDFQSGNKRFPTQLLPDFVTGNLGT
notes: Residues converted from pAD-05 numbering
As to B1, the binding result in assay [1] was “no binding”.

B2: pBHD9 construct cloned into the pGAD vector (other, not shown: large carriers)
chain: MDDEMYGFHSTRDDYADKALMSPENLMMQTEYNNFHNYTNSSILTSNPMMFGSDDIQLSSEQTNSFSTMTLQNNDNIYQIRSGNCGGGSGSGGSSKDHNDNNNNNEDYDEDGSN
notes: also called pBDH9 construct in pGAD
Turning to B2, in assay [2], the binding result is “no binding”.

B3: pBHD-9: POTH1 deletion construct, first amino-terminal 114 aa, no KNOX domain sequence (protein)
chain: B2 chain
On to B3, for which the “pull-down of StBEL-05” value in the assay with StBEL-05 [3] is on record as “unable to pull-down StBEL-05”. Moreover, the “interaction with StBEL-05” value in the assay with StBEL-05 [4] is “Interaction with StBEL-05 was observed”.
